The assay has as its system target antigen-expressing cell line. Put plainly: Jurkat NFAT-GFP assay, coculture with target cell lines expressing the respective target antigen (summary Table 10A). Further details: key: The signs +/−, +, 2+ etc. after the name of the cell lines indicate the relative degree of positivity on the Jurkat-NFAT-GFP assay as measured by the % GFP positive cells; +: relative degree of positivity on the Jurkat-NFAT-GFP assay as measured by the % GFP positive cells; 2+: relative degree of positivity on the Jurkat-NFAT-GFP assay as measured by the % GFP positive cells. The settings on record: relative % GFP positive cells; for NFAT-GFP ASSAY Positive Cell lines: RAJI: SIR-expressing Jurkat-NFAT-GFP cells cocultured with RAJI; for NFAT-GFP ASSAY Positive Cell lines: NALM6: SIR-expressing Jurkat-NFAT-GFP cells cocultured with NALM6. The format is cell-based, human. In outline:
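Jurkat cells carrying an NFAT-site IL-2 promoter driving GFP were lentivirally transduced with SIRs, puromycin-selected, then cocultured with antigen-expressing target cells at E:T about 1:2 for about 4–18 hours. GFP induction was read by flow cytometry as % GFP-positive cells versus parental Jurkat-NFAT-GFP.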

B1: 030817-W07 (protein)
chain: MALPVTALLLPLALLLHAARPSTVMTQSPDSLAVSLGERATINCKSSQSNSNDVAWYQQKPGQSPKVLIYFASNRYSGVPDRFSGSGYGTDFTLTISSLQAEDVAVYFCQQDYSSPLTFGAGTKLELKRADALEDLKNVFPPEVAVFEPSKAEIAHTQKATLVCLATGFYPDHVELSWWVNGKEVHSGVCTDPQPLKEQPALNDSRYCLSSRLRVSATFWQNPRNHFRCQVQFYGLSENDEWTQDRAKPVTQIVSAEAWGRADCGITSASYHQGVLSATILYEILLGKATLYAVLVSALVLMAMVKRKDSRGRAKRSGSGATNFSLLKQAGDVEENPGPTSMDWIWRILFLVGAATGAHSFEQIQLVQSGSELKKPGASVKVSCKASGYTFTNFGVNWVRQAPGKGLEWMGWINTYTGEPSYAQGFTGRFVFSLDASVSTAYLQISSLKAEDTATYFCTRRTNYYGTSYYYAMDYWGQGTTVTVSSAKTTTRIQNPDPAVYQLRDSKSSDKSVCLFTDFDSQTNVSQSKDSDVYITDKCVLDMRSMDFKSNSAVAWSNKSDFACANAFNNSIIPEDTFFPSSDVPCDVKLVEKSFETDTNLNFQNLSVIGFRILLLKVAGFNLLMTLRLWSSRAKRSGSGVKQTLNFDLLKLAGDVESNPGPSRGHMTEYKPTVRLATRDDVPRAVRTLAAAFADYPATRHTVDPDRHIERVTELQELFLTRVGLDIGKVWVADDGAAVAVWTTPESVEAGAVFAEIGPRMAELSGSRLAAQQQMEGLLAPHRPKEPAWFLATVGVSPDHQGKGLGSAVVLPGVEAAERAGVPAFLETSAPRNLPFYERLGFTVTADVEVPEGPRTWCMTRKPGA
In the case of B1, the “NFAT-GFP ASSAY Positive Cell lines: RAJI” value was “RAJI (+/−)”.

B2: 030917-Z01 (protein)
chain: MALPVTALLLPLALLLHAARPEIVLTQSPGTLSLSPGERATLSCRASSSVPYIHWYQQKPGQAPRLLIYATSALASGIPDRFSGSGSGTDFTLTISRLEPEDFAVYYCQQWLSNPPTFGQGTKLELKRLEDLKNVFPPEVAVFEPSKAEIAHTQKATLVCLATGFYPDHVELSWWVNGKEVHSGVCTDPQPLKEQPALNDSRYCLSSRLRVSATFWQNPRNHFRCQVQFYGLSENDEWTQDRAKPVTQIVSAEAWGRADCGITSASYHQGVLSATILYEILLGKATLYAVLVSALVLMAMVKRKDSRGRAKRSGSGATNFSLLKQAGDVEENPGPTSMDWIWRILFLVGAATGAHSFEEVQLVQSGAEVKKPGESLKLSCKGSGRTFTSYNMHWVRQMPGKGLEWMGAIYPLTGDTSYNQKSKLQVTISADKSISTAYLQWSSLKASDTAMYYCARSTYVGGDWQFDVWGKGTTVTVSSTRIQNPDPAVYQLRDSKSSDKSVCLFTDFDSQTNVSQSKDSDVYITDKCVLDMRSMDFKSNSAVAWSNKSDFACANAFNNSIIPEDTFFPSSDVPCDVKLVEKSFETDTNLNFQNLSVIGFRILLLKVAGFNLLMTLRLWSSRAKRSGSGVKQTLNFDLLKLAGDVESNPGPSRGHMTEYKPTVRLATRDDVPRAVRTLAAAFADYPATRHTVDPDRHIERVTELQELFLTRVGLDIGKVWVADDGAAVAVWTTPESVEAGAVFAEIGPRMAELSGSRLAAQQQMEGLLAPHRPKEPAWFLATVGVSPDHQGKGLGSAVVLPGVEAAERAGVPAFLETSAPRNLPFYERLGFTVTADVEVPEGPRTWCMTRKPGA
With B2, the “NFAT-GFP ASSAY Positive Cell lines: NALM6” value is “(+/−)” and the “NFAT-GFP ASSAY Positive Cell lines: RAJI” value was “RAJI (2+), NALM6”.

B3: 030817-X05 (protein)
chain: MALPVTALLLPLALLLHAARPDIQMTQSPSSLSASVGDRVTITCRASSSVSYMHWYQQKPGKAPKPLIYAPSNLASGVPSRFSGSGSGTDFTLTISSLQPEDFATYYCQQWSFNPPTFGQGTKVEIKRLEDLKNVFPPEVAVFEPSKAEIAHTQKATLVCLATGFYPDHVELSWWVNGKEVHSGVCTDPQPLKEQPALNDSRYCLSSRLRVSATFWQNPRNHFRCQVQFYGLSENDEWTQDRAKPVTQIVSAEAWGRADCGITSASYHQGVLSATILYEILLGKATLYAVLVSALVLMAMVKRKDSRGRAKRSGSGATNFSLLKQAGDVEENPGPTSMDWIWRILFLVGAATGAHSFEEVQLVESGGGLVQPGGSLRLSCAASGYTFTSYNMHWVRQAPGKGLEWVGAIYPGNGDTSYNQKFKGRFTISVDKSKNTLYLQMNSLRAEDTAVYYCARVVYYSNSYWYFDVWGQGTLVTVSSTRIQNPDPAVYQLRDSKSSDKSVCLFTDFDSQTNVSQSKDSDVYITDKCVLDMRSMDFKSNSAVAWSNKSDFACANAFNNSIIPEDTFFPSSDVPCDVKLVEKSFETDTNLNFQNLSVIGFRILLLKVAGFNLLMTLRLWSSRAKRSGSGVKQTLNFDLLKLAGDVESNPGPSRGHMTEYKPTVRLATRDDVPRAVRTLAAAFADYPATRHTVDPDRHIERVTELQELFLTRVGLDIGKVWVADDGAAVAVWTTPESVEAGAVFAEIGPRMAELSGSRLAAQQQMEGLLAPHRPKEPAWFLATVGVSPDHQGKGLGSAVVLPGVEAAERAGVPAFLETSAPRNLPFYERLGFTVTADVEVPEGPRTWCMTRKPGA
Consider B3, for which the “NFAT-GFP ASSAY Positive Cell lines: RAJI” value was “RAJI (+/−)”.

B4: 030817-E07 (protein)
chain: MALPVTALLLPLALLLHAARPEIVLTQSPSSLSASVGDRVTITCRASSSLSFMHWYQQKPGKAPKPWIYATSNLASGVPSRFSGSGSGTDYTLTISSLQPEDFATYFCHQWSSNPLTFGGGTKVEIKLEIQNPDPAVYQLRDSKSSDKSVCLFTDFDSQTNVSQSKDSDVYITDKCVLDMRSMDFKSNSAVAWSNKSDFACANAFNNSIIPEDTFFPSSDVPCDVKLVEKSFETDTNLNFQNLSVIGFRILLLKVAGFNLLMTLRLWSSRAKRSGSGVKQTLNFDLLKLAGDVESNPGPTSMDWIWRILFLVGAATGAHSFEQVQLVQSGAEVKKPGASVKVSCKASGYTFTSYNMHWVRQAPGQRLEWIGAIYPGNGDTSYNQKFKGRVTVTRDTSANTAYMELSSLKSEDTAVYYCARSHYGSNYVDYFDYWGQGTLVTVSSTREDLKNVFPPEVAVFEPSKAEIAHTQKATLVCLATGFYPDHVELSWWVNGKEVHSGVCTDPQPLKEQPALNDSRYCLSSRLRVSATFWQNPRNHFRCQVQFYGLSENDEWTQDRAKPVTQIVSAEAWGRADCGITSASYHQGVLSATILYEILLGKATLYAVLVSALVLMAMVKRKDSRGRAKRSGSGATNFSLLKQAGDVEENPGPSRGHMTEYKPTVRLATRDDVPRAVRTLAAAFADYPATRHTVDPDRHIERVTELQELFLTRVGLDIGKVWVADDGAAVAVWTTPESVEAGAVFAEIGPRMAELSGSRLAAQQQMEGLLAPHRPKEPAWFLATVGVSPDHQGKGLGSAVVLPGVEAAERAGVPAFLETSAPRNLPFYERLGFTVTADVEVPEGPRTWCMTRKPGA
For the molecule B4, for the setting “SIR-expressing Jurkat-NFAT-GFP cells cocultured with U266”, the “NFAT-GFP ASSAY Positive Cell lines: U266” value is given as “U266 (+/−)”.

B5: 031417-N06 (protein)
chain: MALPVTALLLPLALLLHAARPQIVLSQSPAILSASPGEKVTMTCRASSSVSYMHWYQQKPGSSPKPWIYATSNLASGVPARFSGSGSGTSYSFTISRVEAEDAATYYCQQWTFNPPTFGGGTRLEIKRTVAALEIQNPDPAVYQLRDSKSSDKSVCLFTDFDSQTNVSQSKDSDVYITDKCVLDMRSMDFKSNSAVAWSNKSDFACANAFNNSIIPEDTFFPSSDVPCDVKLVEKSFETDTNLNFQNLSVIGFRILLLKVAGFNLLMTLRLWSSRAKRSGSGVKQTLNFDLLKLAGDVESNPGPTSMDWIWRILFLVGAATGAHSFEQAYLQQSGAELVRPGASVKMSCKASGYTFTSYNMHWVKQTPRQGLEWIGGIYPGNGDTSYNQKFKGKATLTVGKSSSTAYMQLSSLTSEDSAVYFCARYDYNYAMDYWGQGTSVTVSSASTREDLKNVFPPEVAVFEPSKAEIAHTQKATLVCLATGFYPDHVELSWWVNGKEVHSGVCTDPQPLKEQPALNDSRYCLSSRLRVSATFWQNPRNHFRCQVQFYGLSENDEWTQDRAKPVTQIVSAEAWGRADCGITSASYHQGVLSATILYEILLGKATLYAVLVSALVLMAMVKRKDSRGRAKRSGSGATNFSLLKQAGDVEENPGPSRGHMTEYKPTVRLATRDDVPRAVRTLAAAFADYPATRHTVDPDRHIERVTELQELFLTRVGLDIGKVWVADDGAAVAVWTTPESVEAGAVFAEIGPRMAELSGSRLAAQQQMEGLLAPHRPKEPAWFLATVGVSPDHQGKGLGSAVVLPGVEAAERAGVPAFLETSAPRNLPFYERLGFTVTADVEVPEGPRTWCMTRKPGA
For B5, the “NFAT-GFP ASSAY Positive Cell lines: NALM6” value is “(+)”.

B6: 031417-L06 (protein)
chain: MALPVTALLLPLALLLHAARPQIVLSQSPAILSASPGEKVTMTCRASSSVSYMHWYQQKPGSSPKPWIYATSNLASGVPARFSGSGSGTSYSFTISRVEAEDAATYYCQQWTFNPPTFGGGTRLEIKRTVAALEDLKNVFPPEVAVFEPSKAEIAHTQKATLVCLATGFYPDHVELSWWVNGKEVHSGVCTDPQPLKEQPALNDSRYCLSSRLRVSATFWQNPRNHFRCQVQFYGLSENDEWTQDRAKPVTQIVSAEAWGRADCGITSASYHQGVLSATILYEILLGKATLYAVLVSALVLMAMVKRKDSRGRAKRSGSGATNFSLLKQAGDVEENPGPTSMDWIWRILFLVGAATGAHSFEQAYLQQSGAELVRPGASVKMSCKASGYTFTSYNMHWVKQTPRQGLEWIGGIYPGNGDTSYNQKFKGKATLTVGKSSSTAYMQLSSLTSEDSAVYFCARYDYNYAMDYWGQGTSVTVSSASTRIQNPDPAVYQLRDSKSSDKSVCLFTDFDSQTNVSQSKDSDVYITDKCVLDMRSMDFKSNSAVAWSNKSDFACANAFNNSIIPEDTFFPSSDVPCDVKLVEKSFETDTNLNFQNLSVIGFRILLLKVAGFNLLMTLRLWSSRAKRSGSGVKQTLNFDLLKLAGDVESNPGPSRGHMTEYKPTVRLATRDDVPRAVRTLAAAFADYPATRHTVDPDRHIERVTELQELFLTRVGLDIGKVWVADDGAAVAVWTTPESVEAGAVFAEIGPRMAELSGSRLAAQQQMEGLLAPHRPKEPAWFLATVGVSPDHQGKGLGSAVVLPGVEAAERAGVPAFLETSAPRNLPFYERLGFTVTADVEVPEGPRTWCMTRKPGA
As to B6, the “NFAT-GFP ASSAY Positive Cell lines: RAJI” value is “RAJI (+/−)”.

The record behind these values is patent US12269859B2, “Synthetic immune receptors and methods of use thereof” (Angeles Therapeutics, Inc., priority 2016, dated 2025).
